{
  "source": "IntAct's records for PubMed 11278422",
  "parents": {"B1": {"name": "Apoptosis-stimulating of p53 protein 2 (Homo sapiens), Q13625-2 (parent)", "chain": "MDLTLAELQEMASRQQQQIEAQQQLLATKEQRLKFLKQQDQRQQQQVAEQEKLKRLKEIAENQEAKLKKVRALKGHVEQKRLSNGKLVEEIEQMNNLFQQKQRELVLAVSKVEELTRQLEMLKNGRIDSHHDNQSAVAELDRLYKELQLRNKLNQEQNAKLQQQRECLNKRNSEVAVMDKRVNELRDRLWKKKAALQQKENLPVSSDGNLPQQAASAPSRVAAVGPYIQSSTMPRMPSRPELLVKPALPDGSLVIQASEGPMKIQTLPNMRSGAASQTKGSKIHPVGPDWSPSNADLFPSQGSASVPQSTGNALDQVDDGEVPLREKEKKVRPFSMFDAVDQSNAPPSFGTLRKNQSSEDILRDAQVANKNVAKVPPPVPTKPKQINLPYFGQTNQPPSDIKPDGSSQQLSTVVPSMGTKPKPAGQQPRVLLSPSIPSVGQDQTLSPGSKQESPPAAAVRPFTPQPSKDTLLPPFRKPQTVAASSIYSMYTQQQAPGKNFQQAVQSALTKTHTRGPHFSSVYGKPVIAAAQNQQQHPENIYSNSQGKPGSPEPETEPVSSVQENHENERIPRPLSPTKLLPFLSNPYRNQSDADLEALRKKLSNAPRPLKKRSSITEPEGPNGPNIQKLLYQRTTIAAMETISVPSYPSKSASVTASSESPVEIQNPYLHVEPEKEVVSLVPESLSPEDVGNASTENSDMPAPSPGLDYEPEGVPDNSPNLQNNPEEPNPEAPHVLDVYLEEYPPYPPPPYPSGEPEGPGEDSVSMRPPEITGQVSLPPGKRTNLRKTGSERIAHGMRVKFNPLALLLDSSLEGEFDLVQRIIYEVDDPSLPNDEGITALHNAVCAGHTEIVKFLVQFGVNVNAADSDGWTPLHCAASCNNVQVCKFLVESGAAVFAMTYSDMQTAADKCEEMEEGYTQCSQFLYGVQEKMGIMNKGVIYALWDYEPQNDDELPMKEGDCMTIIHREDEDEIEWWWARLNDKEGYVPRNLLGLYPRIKPRQRSLA"}},
  "data": [
    {"variants_of": "B1", "conditions": "with yap1_chick YAP1, P46936", "values": [
      {"variant": "Y746A", "effect of a mutation on the interaction": "disrupting interaction"}
    ]},
    {"variants_of": "B1", "conditions": "with yap1_chick YAP1, P46936", "remark": "another data set of the same source", "values": [
      {"variant": "P748A", "effect of a mutation on the interaction": "disrupting interaction"}
    ]},
    {"variants_of": "B1", "conditions": "with yap1_chick YAP1, P46936", "remark": "another data set of the same source", "values": [
      {"variant": "Y751A", "effect of a mutation on the interaction": "disrupting interaction"}
    ]},
    {"variants_of": "B1", "conditions": "with yap1_chick YAP1, P46936", "remark": "another data set of the same source", "values": [
      {"variant": "P749A", "effect of a mutation on the interaction": "disrupting interaction"}
    ]},
    {"variants_of": "B1", "conditions": "with yap1_chick YAP1, P46936", "remark": "another data set of the same source", "values": [
      {"variant": "P747A", "effect of a mutation on the interaction": "decreasing interaction"}
    ]}
  ]
}
